Laboratory results reported in publication PMC8517857, “BusR senses bipartite DNA binding motifs by a unique molecular ruler architecture” (Nucleic Acids Research, 2021).

Key:
[1] = target: BusR from Streptococcus agalactiae (full length) (Streptococcus agalactiae); experiment: SAXS; full length BusR in 20 mM HEPES pH 7.5, 200 mM NaCl, 3% glycerol; P12 beamline, PETRA III
[2] = target: BusR from Streptococcus agalactiae (full length) (Streptococcus agalactiae); experiment: cryo-EM structure; BusR with c-di-AMP (100 μM) and operator DNA (pAB, 4.5 Å; pAB1, 7.1 Å), 20 mM HEPES pH 6.5, 100 mM NaCl
[3] = target: BusR from Streptococcus agalactiae (full length) (Streptococcus agalactiae); experiment: SEC-MALS; SEC-coupled right angle light scattering (SEC-RALS), Superdex S200 10/300 increase, 20°C, buffer SEC (30 mM NaPi pH 6.5, 200 mM NaCl, 3% glycerol); BusR alone (apo) and with c-di-AMP
[4] = target: RCK_C domain of S. agalactiae BusR (Leu135 to end), no His6-tag (Streptococcus agalactiae); experiment: crystal structure; RCK_C (no His6-tag), 4.5 mg/mL, co-crystallised with 1 mM c-di-AMP, 100 mM sodium-acetate pH 4.6, 3% PEG 4000, 20°C; 1.2 Å
BusR = target: T1, BusR (Streptococcus agalactiae, UniProt K0JNC6); experiment: ITC; […] Å co-crystal structure of the RCK_C domain; cryo-EM of the BusR:c-di-AMP:DNA complex; format: binding
T1 construct: gene BM110_ORF1201; full-length BusR (ITC)

[5] = target: His6-RCK_C domain of S. agalactiae BusR (Leu135 to end) (Streptococcus agalactiae); experiment: SAXS; isolated RCK_C domain in the absence of c-di-AMP; batch mode or SEC-SAXS, P12 beamline, PETRA III
[6] = target: His6-RCK_C domain of S. agalactiae BusR (Leu135 to end) (Streptococcus agalactiae); experiment: crystal structure; apo His6-RCK_C, 6 mg/mL, 0.1 M Bis-Tris pH 6.5, 18% PEG MME 5000, 20°C; 1 Å; dimer by a symmetry related copy
[7] = target: selenomethionine substituted full-length BusR from Streptococcus agalactiae (Streptococcus agalactiae); experiment: crystal structure; selenomethionine full-length BusR, apo, 7 mg/ml, 150 mM magnesium-acetate, 6% D+trehalose, 20°C; SAD, 2.8 Å
BusR wt [8] = target: T2, BusR wt (Streptococcus agalactiae DSM 16828, UniProt K0JNC6 1-213); experiment: EMSA; 10 uM c-di-AMP, 100 nM BusR; EMSA: 100 mM KPi pH 6.5, 20 mM KCl, 30 min 20 C, 20 nM DNA, gel at 8 C; SPR: 100 mM NaPi pH 6.5, 20 mM KCl, 200 mM NaCl, 3 mM EDTA, 0.05% P20; BusR concentrations as tetramer; conditions: protein: recombinant; tags: His6-MBP removed with PreScission protease; chain copies: 4; label: 5'-6-FAM on strand 1; blunt
T2 sequence: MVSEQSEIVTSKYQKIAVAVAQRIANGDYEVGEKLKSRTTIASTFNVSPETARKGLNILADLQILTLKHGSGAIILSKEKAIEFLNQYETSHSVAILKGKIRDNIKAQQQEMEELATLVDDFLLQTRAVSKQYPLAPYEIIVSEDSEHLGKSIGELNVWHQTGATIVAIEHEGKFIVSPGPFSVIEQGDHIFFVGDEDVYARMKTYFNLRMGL

BusR W159A [9] = target: T3, BusR W159A (Streptococcus agalactiae DSM 16828, UniProt K0JNC6 1-213, W159A); experiment: SPR; no c-di-AMP; EMSA: 100 mM KPi pH 6.5, 20 mM KCl, 30 min 20 C, 20 nM DNA, gel at 8 C; SPR: 100 mM NaPi pH 6.5, 20 mM KCl, 200 mM NaCl, 3 mM EDTA, 0.05% P20; BusR concentrations as tetramer; conditions: protein: recombinant; tags: His6-MBP removed with PreScission protease; chain copies: 4; blunt
BusR W159A [10] = target: T3, BusR W159A; experiment: SPR; 10 uM c-di-AMP; EMSA: 100 mM KPi pH 6.5, 20 mM KCl, 30 min 20 C, 20 nM DNA, gel at 8 C; SPR: 100 mM NaPi pH 6.5, 20 mM KCl, 200 mM NaCl, 3 mM EDTA, 0.05% P20; BusR concentrations as tetramer; conditions: protein: recombinant; tags: His6-MBP removed with PreScission protease; chain copies: 4; blunt
BusR wt [11] = target: T2, BusR wt; experiment: as above; conditions: protein: recombinant; tags: His6-MBP removed with PreScission protease; chain copies: 4; blunt
BusR wt [12] = target: T2, BusR wt; experiment: cryo-EM; c-di-AMP; 7.1 A; EMSA: 100 mM KPi pH 6.5, 20 mM KCl, 30 min 20 C, 20 nM DNA, gel at 8 C; SPR: 100 mM NaPi pH 6.5, 20 mM KCl, 200 mM NaCl, 3 mM EDTA, 0.05% P20; BusR concentrations as tetramer; conditions: protein: recombinant; tags: His6-MBP removed with PreScission protease; chain copies: 4; blunt

Molecule: BusR from Streptococcus agalactiae (full length) (natural protein)
- stoichiometry N [1]: 4
- stoichiometry N [2]: 4
- stoichiometry N [3]: 4

Molecule: RCK_C domain of S. agalactiae BusR (Leu135 to end), no His6-tag (domain or fragment)
- stoichiometry N [4]: 2

Molecule: Nc1ncnc2c1ncn2[C@@H]1O[C@@H]2COP(=O)(O)O[C@H]3[C@@H](O)[C@H](n4cnc5c(N)ncnc54)O[C@@H]3COP(=O)(O)O[C@H]2[C@H]1O [c-di-AMP]
- Kd (BusR): 112 ± 7 nM

Molecule: His6-RCK_C domain of S. agalactiae BusR (Leu135 to end) (domain or fragment)
- stoichiometry N [5]: 2
- stoichiometry N [6]: 2

Molecule: selenomethionine substituted full-length BusR from Streptococcus agalactiae (natural protein)
- stoichiometry N [7]: 4

B1: pAB1 +5bp (dsDNA)
DNA 1: ATAAAGTGACGTTAAAGTATCGTCGATTAAAAGGGTAGTCACTTTTTTACT
DNA 2: AGTAAAAAAGTGACTACCCTTTTAATCGACGATACTTTAACGTCACTTTAT
- binding result (BusR wt [8]): no binding

B2: pAB1 (SPR) (dsDNA)
DNA 1: ATAAAGTGACGTTAAAGTATCGTAAAAGGGTAGTCACTTTTTTACT
DNA 2: AGTAAAAAAGTGACTACCCTTTTACGATACTTTAACGTCACTTTAT
- Kd (BusR W159A [9]): 11 ± 2 nM
- Kd (BusR W159A [10]): 34 ± 8 nM
- Kd (BusR wt [11]): 5.1 ± 0.4 nM

B3: pAB1 1BS-A (dsDNA)
DNA 1: ATAAAGTATGGTTAAAGTATCGTAAAAGGGTAGTCACTTTTTTACT
DNA 2: AGTAAAAAAGTGACTACCCTTTTACGATACTTTAACCATACTTTAT
- binding result (BusR wt [8]): no binding

B4: pAB1 1BS-B (dsDNA)
DNA 1: ATAAAGTGACGTTAAAGTATCGTAAAAGGGTACATACTTTTTTACT
DNA 2: AGTAAAAAAGTATGTACCCTTTTACGATACTTTAACGTCACTTTAT
- binding result (BusR wt [8]): no binding

B5: pAB1 0BS (dsDNA)
DNA 1: ATAAAGTATGGTTAAAGTATCGTAAAAGGGTACATACTTTTTTACT
DNA 2: AGTAAAAAAGTATGTACCCTTTTACGATACTTTAACCATACTTTAT
- binding result (BusR wt [8]): no binding

B6: pAB1 -10bp (dsDNA)
DNA 1: ATAAAGTGACGTTAAAAGGGTAGTCACTTTTTTACT
DNA 2: AGTAAAAAAGTGACTACCCTTTTAACGTCACTTTAT
- binding result (BusR wt [8]): no binding

B7: pAB1_EM (dsDNA)
DNA 1: CGGTAAAGTGACGTTAAAGTATCGTAAAAGGGTAGTCACTTTTCGG
DNA 2: CCGAAAAGTGACTACCCTTTTACGATACTTTAACGTCACTTTACCG
- binding result (BusR wt [12]): binds
